Measurements as given in article PMC2756588.

Each binder was assayed against T1, Bzz1-2, P38822 (assay: SPOT array). Conditions: median of control spots 4538.
T1 sequence (P38822 568-633, looked up): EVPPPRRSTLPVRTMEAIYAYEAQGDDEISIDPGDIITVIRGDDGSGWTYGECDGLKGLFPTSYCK

Row | Binder | SPOT intensity
1 | SRQAIPPPVPNRPGG | 0
2 | DAPASKPSVPPRNYF | 0
3 | FYNRTAFQLPGDARV | 0
4 | AIPPPVPNRPGGTTN | 0

What follows are binders tested against Bem1-1, P29366 (assay: SPOT array). Conditions: median of control spots 4282.
Sequence of Bem1-1, P29366 (P29366 55-141): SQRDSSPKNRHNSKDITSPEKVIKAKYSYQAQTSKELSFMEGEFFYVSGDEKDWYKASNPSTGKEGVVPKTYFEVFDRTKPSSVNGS

Row | Binder | SPOT intensity
5 | SRQAIPPPVPNRPGG | 1
6 | DAPASKPSVPPRNYF | 0
7 | FYNRTAFQLPGDARV | 0
8 | AIPPPVPNRPGGTTN | 1

These binders were tested against T2, Boi2, P39969 (assay: SPOT array). Conditions: median of control spots 1161.
T2 sequence (P39969 32-116, looked up): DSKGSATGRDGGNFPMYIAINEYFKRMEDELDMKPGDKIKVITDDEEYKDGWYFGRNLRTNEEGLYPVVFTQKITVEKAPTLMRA

Row | Binder | SPOT intensity
9 | SRQAIPPPVPNRPGG | 0
10 | DAPASKPSVPPRNYF | 0
11 | FYNRTAFQLPGDARV | 0
12 | AIPPPVPNRPGGTTN | 0

The binders below were run against T3, Lsb4, P32793 (assay: SPOT array). Conditions: median of control spots 397.
T3 sequence (P32793 402-468, looked up): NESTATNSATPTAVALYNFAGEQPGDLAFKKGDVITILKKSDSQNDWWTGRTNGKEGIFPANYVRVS

Row | Binder | SPOT intensity
13 | SRQAIPPPVPNRPGG | 373
14 | DAPASKPSVPPRNYF | 231
15 | FYNRTAFQLPGDARV | 0
16 | AIPPPVPNRPGGTTN | 222

These binders were tested against GST (assay: SPOT array). Conditions: median of control spots 978.

Row | Binder | SPOT intensity
17 | SRQAIPPPVPNRPGG | 0
18 | DAPASKPSVPPRNYF | 0
19 | FYNRTAFQLPGDARV | 0
20 | AIPPPVPNRPGGTTN | 0

These binders were tested against Bem1-2, P29366 (assay: SPOT array). Conditions: median of control spots 4347.
Sequence of Bem1-2, P29366 (P29366 139-227): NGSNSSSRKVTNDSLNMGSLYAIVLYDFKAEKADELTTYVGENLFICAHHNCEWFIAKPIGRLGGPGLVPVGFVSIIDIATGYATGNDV

Row | Binder | SPOT intensity
21 | SRQAIPPPVPNRPGG | 3
22 | DAPASKPSVPPRNYF | 0
23 | FYNRTAFQLPGDARV | 1
24 | AIPPPVPNRPGGTTN | 1

Each binder was assayed against T4, Nbp2, Q12163 (assay: SPOT array). Conditions: median of control spots 357.
T4 sequence (Q12163 103-180, looked up): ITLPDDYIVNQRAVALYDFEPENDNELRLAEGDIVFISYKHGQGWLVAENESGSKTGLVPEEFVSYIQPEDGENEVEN

Row | Binder | SPOT intensity
25 | SRQAIPPPVPNRPGG | 1
26 | DAPASKPSVPPRNYF | 2
27 | FYNRTAFQLPGDARV | 2
28 | AIPPPVPNRPGGTTN | 1

The binders below were run against T5, Pex13, P80667 (assay: SPOT array). Conditions: median of control spots 1341.
T5 sequence (P80667 295-386, looked up): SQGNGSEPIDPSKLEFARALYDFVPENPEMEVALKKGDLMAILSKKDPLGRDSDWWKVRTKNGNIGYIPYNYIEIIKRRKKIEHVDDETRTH

Row | Binder | SPOT intensity
29 | SRQAIPPPVPNRPGG | 133
30 | DAPASKPSVPPRNYF | 91
31 | FYNRTAFQLPGDARV | 6
32 | AIPPPVPNRPGGTTN | 375

Each binder was assayed against Rvs167, P39743 (assay: SPOT array). Conditions: median of control spots 2707.
Sequence of Rvs167, P39743 (P39743 419-482): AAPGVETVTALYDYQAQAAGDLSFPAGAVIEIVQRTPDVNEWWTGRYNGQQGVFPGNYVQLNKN

Row | Binder | SPOT intensity
33 | SRQAIPPPVPNRPGG | 833
34 | DAPASKPSVPPRNYF | 58
35 | FYNRTAFQLPGDARV | 0
36 | AIPPPVPNRPGGTTN | 1430

The binders below were run against T6, Abp1, P15891 (assay: SPOT array). Conditions: median of control spots 935.
T6 sequence (P15891 535-592, looked up): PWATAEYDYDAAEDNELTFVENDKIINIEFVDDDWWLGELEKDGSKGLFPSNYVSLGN

Row | Binder | SPOT intensity
37 | SRQAIPPPVPNRPGG | 24
38 | DAPASKPSVPPRNYF | 17
39 | FYNRTAFQLPGDARV | 3
40 | AIPPPVPNRPGGTTN | 7

The binders below were run against T7, Cyk3, Q07533 (assay: SPOT array). Conditions: median of control spots 1451.
T7 sequence (Q07533 1-83, looked up): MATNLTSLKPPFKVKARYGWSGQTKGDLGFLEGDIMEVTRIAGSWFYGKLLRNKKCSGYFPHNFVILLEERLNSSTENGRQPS

Row | Binder | SPOT intensity
41 | SRQAIPPPVPNRPGG | 1
42 | DAPASKPSVPPRNYF | 1
43 | FYNRTAFQLPGDARV | 0
44 | AIPPPVPNRPGGTTN | 2

The binders below were run against T8, Sla1-3, P32790 (assay: SPOT array). Conditions: median of control spots 5475.
T8 sequence (P32790 344-424, looked up): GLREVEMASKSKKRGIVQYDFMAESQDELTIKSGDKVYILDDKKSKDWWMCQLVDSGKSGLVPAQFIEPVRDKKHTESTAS

Row | Binder | SPOT intensity
45 | SRQAIPPPVPNRPGG | 3
46 | DAPASKPSVPPRNYF | 12
47 | FYNRTAFQLPGDARV | 5
48 | AIPPPVPNRPGGTTN | 1

These binders were tested against T9, Pin3, Q06449 (assay: SPOT array). Conditions: median of control spots 2171.
T9 sequence (Q06449 53-122, looked up): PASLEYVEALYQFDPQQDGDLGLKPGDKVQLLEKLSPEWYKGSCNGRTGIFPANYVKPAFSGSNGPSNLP

Row | Binder | SPOT intensity
49 | SRQAIPPPVPNRPGG | 55
50 | DAPASKPSVPPRNYF | 23
51 | FYNRTAFQLPGDARV | 151
52 | AIPPPVPNRPGGTTN | 48

What follows are binders tested against T10, Bud14, P27637 (assay: SPOT array). Conditions: median of control spots 956.
T10 sequence (P27637 247-328, looked up): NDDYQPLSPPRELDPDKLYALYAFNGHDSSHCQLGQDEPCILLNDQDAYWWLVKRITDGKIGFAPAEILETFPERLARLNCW

Row | Binder | SPOT intensity
53 | SRQAIPPPVPNRPGG | 0
54 | DAPASKPSVPPRNYF | 0
55 | FYNRTAFQLPGDARV | 4
56 | AIPPPVPNRPGGTTN | 2

Each binder was assayed against T11, Hse1, P38753 (assay: SPOT array). Conditions: median of control spots 1727.
T11 sequence (P38753 208-285, looked up): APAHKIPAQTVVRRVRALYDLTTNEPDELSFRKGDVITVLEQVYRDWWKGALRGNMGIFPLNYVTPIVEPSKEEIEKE

Row | Binder | SPOT intensity
57 | SRQAIPPPVPNRPGG | 22
58 | DAPASKPSVPPRNYF | 0
59 | FYNRTAFQLPGDARV | 2
60 | AIPPPVPNRPGGTTN | 22

What follows are binders tested against T12, Myo5, Q04439 (assay: SPOT array). Conditions: median of control spots 471.
T12 sequence (Q04439 1072-1160, looked up): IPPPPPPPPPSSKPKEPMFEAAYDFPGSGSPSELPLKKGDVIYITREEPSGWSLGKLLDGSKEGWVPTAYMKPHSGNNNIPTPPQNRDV

Row | Binder | SPOT intensity
61 | SRQAIPPPVPNRPGG | 21
62 | DAPASKPSVPPRNYF | 0
63 | FYNRTAFQLPGDARV | 1
64 | AIPPPVPNRPGGTTN | 0

These binders were tested against T13, Bzz1-1, P38822 (assay: SPOT array). Conditions: median of control spots 4446.
T13 sequence (P38822 478-572, looked up): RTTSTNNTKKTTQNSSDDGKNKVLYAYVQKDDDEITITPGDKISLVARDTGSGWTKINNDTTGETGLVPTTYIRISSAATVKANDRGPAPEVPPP

Row | Binder | SPOT intensity
65 | SRQAIPPPVPNRPGG | 3
66 | DAPASKPSVPPRNYF | 0
67 | FYNRTAFQLPGDARV | 2
68 | AIPPPVPNRPGGTTN | 2

What follows are binders tested against T14, Lsb3, P43603 (assay: SPOT array). Conditions: median of control spots 406.
T14 sequence (P43603 385-451, looked up): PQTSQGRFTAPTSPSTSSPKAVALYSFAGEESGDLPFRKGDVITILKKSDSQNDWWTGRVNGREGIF

Row | Binder | SPOT intensity
69 | SRQAIPPPVPNRPGG | 658
70 | DAPASKPSVPPRNYF | 125
71 | FYNRTAFQLPGDARV | 2
72 | AIPPPVPNRPGGTTN | 453

Each binder was assayed against T15, Cdc25, P04821 (assay: SPOT array). Conditions: median of control spots 969.
T15 sequence (P04821 50-136, looked up): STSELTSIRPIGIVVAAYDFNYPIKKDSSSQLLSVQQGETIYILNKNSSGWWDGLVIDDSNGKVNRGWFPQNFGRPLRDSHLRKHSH

Row | Binder | SPOT intensity
73 | SRQAIPPPVPNRPGG | 0
74 | DAPASKPSVPPRNYF | 0
75 | FYNRTAFQLPGDARV | 0
76 | AIPPPVPNRPGGTTN | 0

These binders were tested against Myo3, P36006 (assay: SPOT array). Conditions: median of control spots 468.

Row | Binder | SPOT intensity
77 | SRQAIPPPVPNRPGG | 63
78 | DAPASKPSVPPRNYF | 0
79 | FYNRTAFQLPGDARV | 1
80 | AIPPPVPNRPGGTTN | 8

The binders below were run against T16, Bbc1, P47068 (assay: SPOT array). Conditions: median of control spots 796.
T16 sequence (P47068 1-78, looked up): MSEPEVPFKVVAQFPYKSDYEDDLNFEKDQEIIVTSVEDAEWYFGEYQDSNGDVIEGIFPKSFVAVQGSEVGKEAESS

Row | Binder | SPOT intensity
81 | SRQAIPPPVPNRPGG | 247
82 | DAPASKPSVPPRNYF | 6
83 | FYNRTAFQLPGDARV | 0
84 | AIPPPVPNRPGGTTN | 196

These binders were tested against Sho1, P40073 (assay: SPOT array). Conditions: median of control spots 1148.
Sequence of Sho1, P40073 (P40073 287-367): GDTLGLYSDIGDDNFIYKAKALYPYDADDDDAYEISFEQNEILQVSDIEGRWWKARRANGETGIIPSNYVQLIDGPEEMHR

Row | Binder | SPOT intensity
85 | SRQAIPPPVPNRPGG | 14
86 | DAPASKPSVPPRNYF | 0
87 | FYNRTAFQLPGDARV | 4
88 | AIPPPVPNRPGGTTN | 0

The binders below were run against T17, Boi1, P38041 (assay: SPOT array). Conditions: median of control spots 1162.
T17 sequence (P38041 1-86, looked up): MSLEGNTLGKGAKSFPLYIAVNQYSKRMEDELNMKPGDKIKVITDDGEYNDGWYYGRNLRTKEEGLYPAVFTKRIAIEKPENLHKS

Row | Binder | SPOT intensity
89 | SRQAIPPPVPNRPGG | 0
90 | DAPASKPSVPPRNYF | 0
91 | FYNRTAFQLPGDARV | 0
92 | AIPPPVPNRPGGTTN | 1

These binders were tested against T18, Fus1, P11710 (assay: SPOT array). Conditions: median of control spots 1200.
T18 sequence (P11710 432-512, looked up): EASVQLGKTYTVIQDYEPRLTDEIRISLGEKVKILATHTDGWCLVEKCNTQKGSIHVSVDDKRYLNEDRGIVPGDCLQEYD

Row | Binder | SPOT intensity
93 | SRQAIPPPVPNRPGG | 1
94 | DAPASKPSVPPRNYF | 0
95 | FYNRTAFQLPGDARV | 0
96 | AIPPPVPNRPGGTTN | 0

Each binder was assayed against T19, Hof1, Q05080 (assay: SPOT array). Conditions: median of control spots 4086.
T19 sequence (Q05080 590-669, looked up): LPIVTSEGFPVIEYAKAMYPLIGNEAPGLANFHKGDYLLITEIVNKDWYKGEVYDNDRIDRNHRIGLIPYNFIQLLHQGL

Row | Binder | SPOT intensity
97 | SRQAIPPPVPNRPGG | 1
98 | DAPASKPSVPPRNYF | 0
99 | FYNRTAFQLPGDARV | 0
100 | AIPPPVPNRPGGTTN | 1

What follows are binders tested against T20, Sla1-2, P32790 (assay: SPOT array). Conditions: median of control spots 712.
T20 sequence (P32790 60-140, looked up): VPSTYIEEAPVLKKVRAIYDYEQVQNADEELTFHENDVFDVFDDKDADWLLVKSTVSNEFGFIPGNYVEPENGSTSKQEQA

Row | Binder | SPOT intensity
101 | SRQAIPPPVPNRPGG | 0
102 | DAPASKPSVPPRNYF | 0
103 | FYNRTAFQLPGDARV | 0
104 | AIPPPVPNRPGGTTN | 0

These binders were tested against T21, Lsb1, P53281 (assay: SPOT array). Conditions: median of control spots 388.
T21 sequence (P53281 45-122, looked up): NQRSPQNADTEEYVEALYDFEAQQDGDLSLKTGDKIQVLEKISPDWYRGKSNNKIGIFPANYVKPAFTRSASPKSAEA

Row | Binder | SPOT intensity
105 | SRQAIPPPVPNRPGG | 1590
106 | DAPASKPSVPPRNYF | 1310
107 | FYNRTAFQLPGDARV | 2060
108 | AIPPPVPNRPGGTTN | 948
